Test results as given in patent CN117327176A (NANJING RONGJIEKANG BIOTECHNOLOGY CO LTD, dated 2024).
Substitutions are numbered along the chain they refer to.

B1: 单域抗体 1F3 (VHH, E. coli crude extract) (VHH)
VHH: ESGGGSVQAGGSLRLSCATSTSRFTYGSACMGWFRQSPGKEREQVAGIAMGVVTYYADSVKGRFTISQDNGKNTVDLQMDNLKPEDTAMYYCAAGPAHYNCYSASGGRYNYWGQGTQVTVSS
notes: Expressed from pMECS in E. coli and detected through an HA tag
B2: 单域抗体 212C7 (VHH, E. coli crude extract) (VHH)
VHH: B1 VHH with S6L, A9P
notes: as for B1
B3: 单域抗体 2H3 (VHH, E. coli crude extract) (VHH)
VHH: B1 VHH with N100K, Y111I
notes: as for B1
B4: 单域抗体 1F9 (VHH, E. coli crude extract) (VHH)
VHH: ESGGGSVQAGGSLRLSCATSRYTYNCMGWFRQSPGKEREQVAGIAMGVVTYYADSVKGRFTISQDNGKNTVDLQMDNLKPEDTAMYYCAAGPAHYKCYSPSGGRYNYWGQGTQVTVSS
notes: as for B1
B5: 单域抗体 1H5 (VHH, E. coli crude extract) (VHH)
VHH: B4 VHH with S6L, A9P
notes: as for B1
B6: 单域抗体 4A1 (VHH, E. coli crude extract) (VHH)
VHH: B4 VHH with A90S, A93P, P100A
notes: as for B1
B7: 单域抗体 23G12 (VHH, E. coli crude extract) (VHH)
VHH: ESGGGSVQAGGSLRLSCATSRFTYGSACMGWFRQSPGKEREQVAGIAMGVVTYYADSVKGRFTISQDNGKNTVDLQMDNLKPEDTAMYYCATGPAHYKCYSASGGRYNYWGQGTQVTVSS
notes: as for B1
B8: 单域抗体 2G5 (VHH, E. coli crude extract) (VHH)
VHH: B7 VHH with K98N
notes: as for B1
B9: 单域抗体 214D11 (VHH, E. coli crude extract) (VHH)
VHH: B7 VHH with N108D, Y109A
notes: as for B1
B10: 单域抗体 1A7 (VHH, E. coli crude extract) (VHH)
VHH: B7 VHH with S20P, F22Y, S26T, A27S, K38Y, E39Q, T92A
notes: as for B1
B11: 单域抗体 4B2 (VHH, E. coli crude extract) (VHH)
VHH: B7 VHH with F22Y, T92A, K98L, N108T, Y109S
notes: as for B1
B12: 单域抗体 1D1 (VHH, E. coli crude extract) (VHH)
VHH: B7 VHH with A9V, N108S, Y109D
notes: as for B1
B13: 单域抗体 4F3 (VHH, E. coli crude extract) (VHH)
VHH: B7 VHH with F22Y, A27S, G69N, T92S, A95P
notes: as for B1
B14: 单域抗体 21H6 (VHH, E. coli crude extract) (VHH)
VHH: B7 VHH with F22W, S26T, K59E, G69E
notes: as for B1
B15: 单域抗体 27H4 (VHH, E. coli crude extract) (VHH)
VHH: B7 VHH with Q34H, S35A, A102P
notes: as for B1
B16: 单域抗体 2D10 (VHH, E. coli crude extract) (VHH)
VHH: B7 VHH with E83D
notes: as for B1
B17: 单域抗体 1A6 (VHH, E. coli crude extract) (VHH)
VHH: B7 VHH with F22Y, A27S, G30A, T92A, A95P, A102V
notes: as for B1
B18: 单域抗体 1B7 (VHH, E. coli crude extract) (VHH)
VHH: ESGGGSVQAGGSLRLSCTTSGYTYSSNCIGWFRQAPGKEREEIATISRVGEITFYADSVKGRFTISQDNTETTVFLQMNSLKPEDTAVYYCAASPPTYGGCPTRSRDYDKWGQGTQVTVSS
notes: as for B1

molecular target: T1, 人源TSLP蛋白 (Thymic stromal lymphopoietin) (human, UniProt Q969D9 29-159); assay: ELISA of E. coli crude extract on coated TSLP, anti-HA HRP; positive if OD more than 5 times the control well
T1 construct: also called 人源重组TSLP蛋白; TSLP重组蛋白

| Binder | binding result |
| --- | --- |
| B1 | binds |
| B2 | binds |
| B3 | binds |
| B4 | binds |
| B5 | binds |
| B6 | binds |
| B7 | binds |
| B8 | binds |
| B9 | binds |
| B10 | binds |
| B11 | binds |
| B12 | binds |
| B13 | binds |
| B14 | binds |
| B15 | binds |
| B16 | binds |
| B17 | binds |
| B18 | binds |
